Test [1] addresses IRE1α LD 312TLPL315-GSGS mutant (human) (UniProt O75460). Kind of test: AUC; sedimentation velocity (AUC-SV), 25 µM protein.
The target of test [2] is IRE1α LD 352LNYL355-GSGS mutant (human) (UniProt O75460). The description is as above.
Test [3] addresses human IRE1α lumenal domain (IRE1α LD, aa 24-443) (human) (UniProt O75460). The experiment in a line: fluorescence polarisation; fluorescence anisotropy of N-terminal fluorescein labeled peptide with IRE1α LD; n = 2 independent experiments.
Test [4] deals with mCherry-IRE1α LD 312TLPL315-GSGS-10His (human) (UniProt O75460). Kind of test: mass photometry; protein tethered by C-terminal 10His to supported lipid bilayers (99 mol% POPC, 1 mol% Ni-NTA lipids); 100 nM protein; 25 mM HEPES pH 7.3, 150 mM NaCl, 250 µM TCEP.
For test [5] the target is unchanged. The experiment in a line: mass photometry; protein tethered by C-terminal 10His to supported lipid bilayers (99 mol% POPC, 1 mol% Ni-NTA lipids); 75 nM protein; 25 mM HEPES pH 7.3, 150 mM NaCl, 250 µM TCEP.
Test [6] addresses mCherry-IRE1α LD 352LNYL355-GSGS-10His (human) (UniProt O75460). Kind of test: mass photometry; protein tethered by C-terminal 10His to supported lipid bilayers (99 mol% POPC, 1 mol% Ni-NTA lipids); 100 nM protein; 25 mM HEPES pH 7.3, 150 mM NaCl, 250 µM TCEP.
Test [7] has the same target. Kind of test: mass photometry; protein tethered by C-terminal 10His to supported lipid bilayers (99 mol% POPC, 1 mol% Ni-NTA lipids); 75 nM protein; 25 mM HEPES pH 7.3, 150 mM NaCl, 250 µM TCEP.
In test [8] the target is mCherry-IRE1α LD-10His (human) (UniProt O75460). The experiment in a line: mass photometry; protein tethered by C-terminal 10His to supported lipid bilayers (99 mol% POPC, 1 mol% Ni-NTA lipids); 100 nM protein; 25 mM HEPES pH 7.3, 150 mM NaCl, 250 µM TCEP.
Test [9] has the same target. Kind of test: mass photometry; protein tethered by C-terminal 10His to supported lipid bilayers (99 mol% POPC, 1 mol% Ni-NTA lipids); 75 nM protein; 25 mM HEPES pH 7.3, 150 mM NaCl, 250 µM TCEP.

In general, stoichiometry N refers to the number of molecules, sites or subunits per partner or assembly. As usually defined, the Kd is the free concentration of one partner at which half of the binding sites on the other are occupied at equilibrium, for simple one-to-one binding. Higher therefore signals lower affinity.

UniProt O75460, sequence (O75460 24-443): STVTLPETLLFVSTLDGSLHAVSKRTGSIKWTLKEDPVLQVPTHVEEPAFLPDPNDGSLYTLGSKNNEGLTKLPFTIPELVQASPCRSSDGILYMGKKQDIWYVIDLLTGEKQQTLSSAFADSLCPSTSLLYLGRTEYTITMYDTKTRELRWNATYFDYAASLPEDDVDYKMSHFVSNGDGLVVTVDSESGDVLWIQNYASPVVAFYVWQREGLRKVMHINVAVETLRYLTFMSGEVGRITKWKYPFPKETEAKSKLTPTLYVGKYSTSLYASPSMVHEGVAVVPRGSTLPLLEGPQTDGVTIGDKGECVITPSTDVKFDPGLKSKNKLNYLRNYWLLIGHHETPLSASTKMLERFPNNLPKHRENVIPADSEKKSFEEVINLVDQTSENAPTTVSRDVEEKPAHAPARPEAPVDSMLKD

For “IRE1α LD 312TLPL315-GSGS mutant (from UniProt O75460 24-443) (domain or fragment)”, the stoichiometry N in test [1] was determined as 2.

Take “IRE1α LD 352LNYL355-GSGS mutant (from UniProt O75460 24-443) (domain or fragment)”: in test [2], the stoichiometry N amounted to 2. In the case of “MPZ1N-2X, model unfolded polypeptide (two MPZ1N 12mers in tandem), N-terminal fluorescein labeled”, the dissociation constant (Kd) in test [3] was 2 µM. Regarding “mCherry-IRE1α LD 312TLPL315-GSGS-10His (from UniProt O75460 24-443) (domain or fragment)”, the stoichiometry N in test [4] and in [5] was 2 each time. For the substance “mCherry-IRE1α LD 352LNYL355-GSGS-10His (from UniProt O75460 24-443) (domain or fragment)”, the stoichiometry N in test [6] and in test [7] was 2 each time. For the substance “mCherry-IRE1α LD-10His (from UniProt O75460 24-443) (domain or fragment)”, the stoichiometry N in test [8] and in test [9] was 2 throughout.

Source of the values: paper PMC11480506.
